Test results published in patent US20180291360.
Read-outs that look alike come from different tables or passages of the source.

T1: peptide TPAAAR
T1 chain: TPAAAR

T2: peptide WHWLQLKPGQPMY
T2 chain: WHWLQLKPGQPMY

T3: peptide KPGQPMY
T3 chain: KPGQPMY

B1: TRI032, PepN 2 (aminopeptidase type 2) from Myceliophthora thermophila ATCC 42464 (protein)
chain: GGHGGSSGLGCDSQRPLVSSEKLQSLIKKEDLLAGSQELQDIATAHGGHRAFGSSGHNATVDFLYYTLKALDYYNVTKQPFKEIFSSGTGSLTVDGEDIEAETLTYTPSGSATDKPVVVVANVGCDAADYPAEVAGNIALIKRGTCTFSQKSVNAKAAGAVAAIIYNNAEGKLSGTLGQPFLDYAPVLGITLEAGEALLAKLAGGPVTATLQIDALVEERVTYNVIAETKEGDHSNVLVLGGHTDSVPAGPGINDDGSGTIGMLTVAKALTKFRVKNAVRFAFWSAEEYGLLGSYAYIKSINSSAAELSKIRAYLNFDMIASPNYIYGIYDGDGNAFNLTGPAGSDVIERNFENFFKRKHTPSVPTEFSGRSDYAAFIENGIPSGGLFTGAEVLKTEREAELFGGRAGVAYDVNYHQAGDTVDNLALDAFLLNTKAIADSVATYALSFDGLPRVDGKKRRWDAHRARMLKRSAGSHGHAHLHSGPCGGGASI
B2: TRI031, PepN 2 (aminopeptidase type 2) from Neosartorya fischeri NRRL 181 (protein)
chain: NGPGWDWKPPVHPKVLPQMIHLWDLMHGAQKLEDFAYAYPERNRVFGGPAHEDTVNYLYRELKKTGYYDVYKQPQVHQWTRADQALTVDGKSYVATTMTYSPSVNVTAPLAVVNNLGCVESDYPADLKGKIALVSRGECPFATKSVLSAKAGAAAALVYNNIEGSMAGTLGGPTSELGPYAPIAGISLADGQALIQMIQAGTVTANLWIDSKVENRTTYNVIAQTKGGDPNNVVALGGHTDSVEAGPGINDDGSGIISNLVVAKALTRFSVKNAVRFCFWTAEEFGLLGSSYYVNSLNATEKAKIRLYLNFDMIASPNYALMIYDGDGSAFNLTGPAGSAQIERLFEDYYKSIRKPFVPTEFNGRSDYEAFILNGIPAGGIFTGAEAIKTEEQAKLFGGQAGVALDANYHAKGDNMTNLNREAFLINSKATAFAVATYANSLDSIPSRNMSTVVKRSQLEQAKKSTPHTHTGGTGCYKDRVEQ
B3: TRI063, leucine aminopeptidase 2 from Aspergillus oryzae RIB40 (NCBI Reference Sequence XP_001819545.1) (protein)
chain: RALVSPDEFPEDIQLEDLLEGSQQLEDFAYAYPERNRVFGGKAHDDTVNYLYEELKKTGYYDVYKQPQVHLWSNADQTLKVGDEEIEAKTMTYSPSVEVTADVAVVKNLGCSEADYPSDVEGKVALIKRGECPFGDKSVLAAKAKAAASIVYNNVAGSMAGTLGAAQSDKGPYSAIVGISLEDGQKLIKLAEAGSVSVDLWVDSKQENRTTYNVVAQTKGGDPNNVVALGGHTDSVEAGPGINDDGSGIISNLVIAKALTQYSVKNAVRFLFWTAEEFGLLGSNYYVSHLNATELNKIRLYLNFDMIASPNYALMIYDGDGSAFNQSGPAGSAQIEKLFEDYYDSIDLPHIPTQFDGRSDYEAFILNGIPSGGLFTGAEGIMSEENASRWGGQAGVAYDANYHAAGDNMTNLNHEAFLINSKATAFAVATYANDLSSIPKRNTTSSLHRRARTMRPFGKRAPKTHAHVSGSGCWHSQVEA
B4: TRI035, PepN 2 (aminopeptidase type 2) from Aspergillus clavatus NRRL 1 (protein)
chain: NAPGGPGGHGRKLPVNPKTFPNEIRLKDLLHGSQKLEDFAYAYPERNRVFGGQAHLDTVNYLYRELKKTGYYDVYKQPQVHQWTRADQSLTLGGDSIQASTMTYSPSVNVTAPLSLVSKLGCAEGDYSADVKGKIALVSRGECSFAQKSVLSAKAGAVATIVYNNVDGSLAGTLGGATSELGPYSPIIGITLAAGQDLVARLQAAPTEVSLWIDSKVENRTTYNVIAQTKGGDPNNVVALGGHTDSVENGPGINDDGSGVISNLVVAKALTRYSVKNAVRFCFWTAEEFGLLGSNYYVDNLSPAELAKIRLYLNFDMIASPNYALMIYDGDGSAFNLTGPPGSAQIESLFENYYKSIKQGFVPTAFDGRSDYEGFILKGIPAGGVFTGAESLKTEEQARLFGGQAGVALDANYHAKGDNMTNLNHKAFLINSRATAFAVATYANNLSSIPPRNATVVKRESMKWTKREEPHTHGADTGCFASRVKE

Assays:
peptide TPAAAR [1] = test system: peptide TPAAAR
peptide TPAAAR [2] = target: T1, peptide TPAAAR
peptide WHWLQLKPGQPMY = target: T2, peptide WHWLQLKPGQPMY
peptide KPGQPMY = target: T3, peptide KPGQPMY

| Molecule | hydrolysis of the peptide, LC-MS label free quantification (peptide TPAAAR [1]) | hydrolysis of the peptide, LC-MS label free quantification (peptide TPAAAR [2]) | hydrolysis of the peptide, LC-MS label free quantification (peptide WHWLQLKPGQPMY) | hydrolysis of the peptide (X-Pro bond), LC-MS label free quantification (peptide KPGQPMY) |
| --- | --- | --- | --- | --- |
| COROLASE LAP (fungal exo-peptidase, AB Enzymes) | show no hydrolysis of TPAAAR within 12 hr | – | – | – |
| B1 | – | can hydrolyze the peptide TPAAAR over time to less than half the concentration within 2 hr incubation | – | – |
| B2 | – | – | TRI031 and TRI035 can hydrolyze the peptide WHWLQLKPGQPMY (FIG. 5) to KPGQPMY (FIG. 6) and further down to QPMY (FIG. 7) | to KPGQPMY (FIG. 6) and further down to QPMY (FIG. 7) |
| B3 | – | show no hydrolysis of TPAAAR within 12 hr | we also find that their enzyme cleaves the peptide down to QPMY (FIG. 7) | – |
| B4 | – | can hydrolyze the peptide TPAAAR over time to less than half the concentration within 2 hr incubation | TRI031 and TRI035 can hydrolyze the peptide WHWLQLKPGQPMY (FIG. 5) to KPGQPMY (FIG. 6) and further down to QPMY (FIG. 7) | to KPGQPMY (FIG. 6) and further down to QPMY (FIG. 7) |
